Assay results reported in article PMC5389555.

Legend:
[1] = biological target: HA-GSK3β-K85R (UniProt P49841); assay: co-IP; HEK293T transfected with HA-GSK3β-WT, -S9A, -K85R or -K85A,K86A; lysates pre-cleared, EZView anti-HA agarose beads, 4°C overnight; blots for p72, DGCR8 and HA
[2] = biological target: HA-GSK3β (wild-type) (UniProt P49841); assay: co-IP; HEK293T transfected with HA-GSK3β-WT; anti-HA beads washed in TBS, then RNase A treatment (200 μg/ml) for 15 min at 4°C; blots for p72, DGCR8, Drosha and HA

Question: For “p72 (DDX17) (endogenous) (natural protein)”, which percent reduction of co-precipitation against GSK3β-WT [1] is on record?
Answer: 60%

Question: And the percent reduction of co-precipitation after RNase A treatment [2]?
Answer: > 50%
